Reference: US20190256592A1 (GENAGON THERAPEUTICS, published 2019)
One block for each molecule: values may come before it.

Experiments:
[1] = biological target: Cleft Lip and Palate Transmembrane protein 1 (CLPTM1), human, native, in cells (human) (UniProt O96005); experiment: flow cytometry on permeabilised O-876 cells expressing native CLPTM1, 10x dilution series
[2] = biological target: Cleft Lip and Palate Transmembrane protein 1 (CLPTM1), human, native, in cells (human) (UniProt O96005); experiment: flow cytometry on permeabilised O-876 cells expressing native CLPTM1
[3] = biological target: T1, CLPTM1 peptide G20 (residues 292-311 with C-terminal glycine) (human, biotinylated (position not given)); experiment: ELISA: biotinylated CLPTM1 peptide on streptavidin plate, GDF15 at 100 ng/ml, detected with goat anti-GDF15 and anti-goat-HRP
T1 construct: Biotinylated synthetic peptide on a streptavidin plate; The C-terminal glycine is not in CLPTM1
T1 peptide: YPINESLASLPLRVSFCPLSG
Protocol: (§1) Biotinylated synthetic peptide fragments from CLPTM1 (JPT peptides, Germany) were immobilized in a streptavidin 96 well plate (#15500 Pierce) at 1 μM in PBS overnight at +4° C. Plate was washed 4 times in 300 μl PBS with 0.05% Tween-20 (wash buffer). The plate was blocked with PBS 1% BSA and 0.05% Tween-20 (blocking buffer) for 1.5 hours at room temperature then washed 4 times in wash buffer. GDF15 ligand (Abcam) was added in blocking buffer at 100 ng/ml and incubated at room temperature for 2 hours. The plate was then washed 8 times in 300 μl wash buffer with 2×NaCl. A GDF15 antibody as added at 1 μg/ml (R&D systems goat polyclonal) and incubated in block buffer for 1 hour at room temperature followed by washing with 4×300 μl wash buffer. HAF017 anti-goat-HRP antibody was added and incubated for 1 hour in blocking buffer followed by a wash. TMB substrate was added and stopped after 15 minutes with H2SO4. OD 450-620 was measured in an ELISA reader.
(§2) Polypeptides having sequences set forth in SEQ ID NOs:10-33 were assessed for binding to GDF15 (corresponding to the polypeptides indicated from left to right in FIG. 2 and shown in Table 1). These proteins were synthesised with a C-terminal glycine residue that is not present in the corresponding sequences from CLPTM1.

SDGCYEHFAELDIPQSVQQNG = biological target: T2, SDGCYEHFAELDIPQSVQQNG (biotinylated; C-terminal glycine not from CLPTM1); experiment: as above
T2 construct: also called G8
T2 peptide: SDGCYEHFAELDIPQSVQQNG
Protocol: as §1, §2

AAAQEADGARSAVVAAGGGSG = biological target: T3, AAAQEADGARSAVVAAGGGSG (biotinylated; C-terminal glycine not from CLPTM1); experiment: as above
T3 construct: also called G1
T3 peptide: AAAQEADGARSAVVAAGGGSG
Protocol: as §1, §2

[4] = biological target: T4, CLPTM1 peptide G21 (residues 273-292 with C-terminal glycine) (human, biotinylated (position not given)); experiment: as above
T4 construct: Biotinylated synthetic peptide on a streptavidin plate; The C-terminal glycine is not in CLPTM1
T4 peptide: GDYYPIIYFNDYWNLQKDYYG
Protocol: as §1, §2

LWRWQLYAAQSTKSPWNFLGG = biological target: T5, LWRWQLYAAQSTKSPWNFLGG (biotinylated; C-terminal glycine not from CLPTM1); experiment: as above
T5 construct: also called G19
T5 peptide: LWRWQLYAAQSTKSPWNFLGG
Protocol: as §1, §2

RRRFQKTKNLLTGETEADPEG = biological target: T6, RRRFQKTKNLLTGETEADPEG (biotinylated; C-terminal glycine not from CLPTM1); experiment: as above
T6 construct: also called G11
T6 peptide: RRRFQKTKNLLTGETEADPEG
Protocol: as §1, §2

QNPPAQPAPNAWQVIKGVLFG = biological target: T7, QNPPAQPAPNAWQVIKGVLFG (biotinylated; C-terminal glycine not from CLPTM1); experiment: as above
T7 construct: also called G3
T7 peptide: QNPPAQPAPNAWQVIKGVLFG
Protocol: as §1, §2

QAGPGGAPRVASRNLFPKDTG = biological target: T8, QAGPGGAPRVASRNLFPKDTG (biotinylated; C-terminal glycine not from CLPTM1); experiment: as above
T8 construct: also called G5
T8 peptide: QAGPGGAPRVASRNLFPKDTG
Protocol: as §1, §2

SALFWEQHDLVYGDWTSGENG = biological target: T9, SALFWEQHDLVYGDWTSGENG (biotinylated; C-terminal glycine not from CLPTM1); experiment: as above
T9 construct: also called G7
T9 peptide: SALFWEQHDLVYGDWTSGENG
Protocol: as §1, §2

RIFIIWAISSWFRRGPAPQDG = biological target: T10, RIFIIWAISSWFRRGPAPQDG (biotinylated; C-terminal glycine not from CLPTM1); experiment: as above
T10 construct: also called G4
T10 peptide: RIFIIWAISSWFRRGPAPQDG
Protocol: as §1, §2

NDYWNLQKDYYPINESLASLG = biological target: T11, NDYWNLQKDYYPINESLASLG (biotinylated; C-terminal glycine not from CLPTM1); experiment: as above
T11 construct: also called G15
T11 peptide: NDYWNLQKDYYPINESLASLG
Protocol: as §1, §2

[5] = biological target: T12, CLPTM1 peptide G9 (residues 162-181 with C-terminal glycine) (human, biotinylated (position not given)); experiment: as above
T12 construct: Biotinylated synthetic peptide on a streptavidin plate; The C-terminal glycine is not in CLPTM1
T12 peptide: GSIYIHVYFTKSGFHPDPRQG
Protocol: as §1, §2

YEQSDEEQDSVKVALLETNPG = biological target: T13, YEQSDEEQDSVKVALLETNPG (biotinylated; C-terminal glycine not from CLPTM1); experiment: as above
T13 construct: also called G18
T13 peptide: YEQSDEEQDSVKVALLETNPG
Protocol: as §1, §2

WQVIKGVLFRIFIIWAISSWG = biological target: T14, WQVIKGVLFRIFIIWAISSWG (biotinylated; C-terminal glycine not from CLPTM1); experiment: as above
T14 construct: also called G22
T14 peptide: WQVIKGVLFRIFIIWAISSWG
Protocol: as §1, §2

MIKRAEDYGPVEVISHWHPNG = biological target: T15, MIKRAEDYGPVEVISHWHPNG (biotinylated; C-terminal glycine not from CLPTM1); experiment: as above
T15 construct: also called G12
T15 peptide: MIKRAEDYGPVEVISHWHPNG
Protocol: as §1, §2

[6] = biological target: T16, CLPTM1 peptide G10 (residues 182-201 with C-terminal glycine) (human, biotinylated (position not given)); experiment: as above
T16 construct: Biotinylated synthetic peptide on a streptavidin plate; The C-terminal glycine is not in CLPTM1
T16 peptide: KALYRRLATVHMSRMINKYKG
Protocol: as §1, §2

SGQVTSNGSIGRDPPAETQPG = biological target: T17, SGQVTSNGSIGRDPPAETQPG (biotinylated; C-terminal glycine not from CLPTM1); experiment: as above
T17 construct: also called G2
T17 peptide: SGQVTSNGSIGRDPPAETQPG
Protocol: as §1, §2

[7] = biological target: T18, CLPTM1 peptide G14 (residues 262-281 with C-terminal glycine) (human, biotinylated (position not given)); experiment: as above
T18 construct: Biotinylated synthetic peptide on a streptavidin plate; The C-terminal glycine is not in CLPTM1
T18 peptide: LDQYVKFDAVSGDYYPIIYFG
Protocol: as §1, §2

[8] = biological target: T19, …; experiment: as above
T19 sequence (peptide, biotinylated; C-terminal glycine not from CLPTM1): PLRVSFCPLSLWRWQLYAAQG

[9] = biological target: T20, …; experiment: as above; remark: listed apart in the source
T20 sequence (peptide, biotinylated; C-terminal glycine not from CLPTM1): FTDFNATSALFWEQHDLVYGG

[10] = biological target: T21, …; experiment: as above; remark: listed apart in the source
T21 sequence (peptide, biotinylated; C-terminal glycine not from CLPTM1): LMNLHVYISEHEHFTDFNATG

[11] = biological target: T22, …; experiment: as above; remark: listed apart in the source
T22 sequence (peptide, biotinylated; C-terminal glycine not from CLPTM1): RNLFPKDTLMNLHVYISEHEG

[12] = biological target: T23, …; experiment: as above; remark: listed apart in the source
T23 sequence (peptide, biotinylated; C-terminal glycine not from CLPTM1): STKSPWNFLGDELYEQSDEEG

[13] = biological target: T24, Cleft Lip and Palate Transmembrane protein 1 (CLPTM1), human, native, in cells (human, UniProt O96005 2-669); experiment: flow cytometry on permeabilised O-876 cells expressing native CLPTM1; Kd defined by half maximal binding
T24 construct: Native CLPTM1 as expressed by cells; also called CLPTM1 receptor
T24 sequence: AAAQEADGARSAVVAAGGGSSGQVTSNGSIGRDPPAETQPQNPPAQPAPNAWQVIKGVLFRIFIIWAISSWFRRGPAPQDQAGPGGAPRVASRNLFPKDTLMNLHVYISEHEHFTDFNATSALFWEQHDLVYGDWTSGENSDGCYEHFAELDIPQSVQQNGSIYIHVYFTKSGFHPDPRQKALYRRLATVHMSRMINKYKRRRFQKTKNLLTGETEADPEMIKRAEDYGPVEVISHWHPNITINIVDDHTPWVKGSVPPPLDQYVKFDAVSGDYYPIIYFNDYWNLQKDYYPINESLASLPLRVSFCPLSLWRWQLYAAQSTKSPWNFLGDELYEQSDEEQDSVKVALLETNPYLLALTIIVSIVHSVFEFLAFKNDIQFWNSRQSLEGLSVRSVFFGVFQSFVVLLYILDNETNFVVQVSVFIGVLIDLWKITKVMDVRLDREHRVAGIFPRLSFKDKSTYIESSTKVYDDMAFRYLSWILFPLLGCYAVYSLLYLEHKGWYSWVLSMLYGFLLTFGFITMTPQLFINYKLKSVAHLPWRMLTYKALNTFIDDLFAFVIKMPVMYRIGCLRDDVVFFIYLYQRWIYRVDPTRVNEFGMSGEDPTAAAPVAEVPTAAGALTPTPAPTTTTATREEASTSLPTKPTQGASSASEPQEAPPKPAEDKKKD
Protocol: (§3) Affinity of antibodies was determined by finding the half-maximal binding on the native target in a flow cytometry assay. Since the native target is found inside most cells and rarely on the cell surface, the assay was performed using plasma membrane-permeabilized cells, an intra-cellular staining protocol. Using the native target is more applicable when evaluating and comparing various antibodies as it is the true antigen to be bound in a therapeutic setting in vivo. 0-876 cells were permeabilized with BD-fix and permeabilization buffer (554722 BD-Biosciences). Antibody at various concentrations was incubated with cells for 30 minutes at +4 C, then washed twice with wash buffer (BD-Biosciences 554723). Secondary antibodies a-mouse IgG-PE (Molecular Probes) was used for mouse monoclonal antibodies according to manufacturer's instructions and a-rabbit-IgG-PE (Molecular Probes) for rabbit monoclonal antibody (Abcam ERP8800). Three washes followed and fluorescence intensity in cells was quantified by FACS Cantoll in PBS with cells in 2% FCS buffer.
(§4) The assay was performed on 0-876 cancer cell line.

[14] = biological target: T24, Cleft Lip and Palate Transmembrane …; experiment: flow cytometry on permeabilised O-876 cells expressing native CLPTM1
Protocol: as §3, §4

Molecule: Santa Cruz mouse anti-human CLPTM1 monoclonal antibody (G-7) (sc-374619)
- percent of maximum binding at 1 µg/ml [1]: < 50%

B2: Mouse monoclonal anti-CLPTM1 antibody 7G12 (antibody, V domains shown)
VH: QVQLQQSGTELVRPGTSVKVSCKASGYAFTNYLIEWVKQRPGQGLEWIGVINPGSGGTRYNEKFKGKATLTADKSSTTAHMQLSSLTSDDSAVYCARWGGNYSGYAMDYWGQGTSVTVSS
VL: QIVLTQSPVIMSASPGEKVTITCSASSSVSYMHWFQQKPGTSPKLWIYSTSNLASGVPARFSGSGSGTSYSLTISRMEAEDAATYYCQQRSSYPPTFGAGTKL
notes: Mouse IgG1 heavy chain, kappa light chain; also called mAb 7G12; 7G12hyb
- Kd [13]: < 1 nM
- EC50 [14]: < 1 µg/mL

The next lines start with the values.

- percent of maximum binding at 0.1 µg/ml [1]: > 50%
- percent of maximal binding at 1 µg/mL [2]: > 50%
Molecule: AbCam anti-CLPTM1 rabbit monoclonal antibody EPR8800 (RabMab)

- OD ELISA 450nm - 620nm [3]: 0.22 OD
- OD ELISA 450nm - 620nm (SDGCYEHFAELDIPQSVQQNG): 0.024 OD
- OD ELISA 450nm - 620nm (AAAQEADGARSAVVAAGGGSG): 0.022 OD
- OD ELISA 450nm - 620nm [4]: 0.507 OD
- OD ELISA 450nm - 620nm (LWRWQLYAAQSTKSPWNFLGG): 0.033 OD
- OD ELISA 450nm - 620nm (RRRFQKTKNLLTGETEADPEG): 0.021 OD
- OD ELISA 450nm - 620nm (QNPPAQPAPNAWQVIKGVLFG): 0.042 OD
- OD ELISA 450nm - 620nm (QAGPGGAPRVASRNLFPKDTG): 0.034 OD
- OD ELISA 450nm - 620nm (SALFWEQHDLVYGDWTSGENG): 0.034 OD
- OD ELISA 450nm - 620nm (RIFIIWAISSWFRRGPAPQDG): 0.026 OD
- OD ELISA 450nm - 620nm (NDYWNLQKDYYPINESLASLG): 0.038 OD
- OD ELISA 450nm - 620nm [5]: 0.149 OD
- OD ELISA 450nm - 620nm (YEQSDEEQDSVKVALLETNPG): 0.022 OD
- OD ELISA 450nm - 620nm (WQVIKGVLFRIFIIWAISSWG): 0.023 OD
- OD ELISA 450nm - 620nm (MIKRAEDYGPVEVISHWHPNG): 0.028 OD
- OD ELISA 450nm - 620nm [6]: 0.197 OD
- OD ELISA 450nm - 620nm (SGQVTSNGSIGRDPPAETQPG): 0.009 OD
- OD ELISA 450nm - 620nm [7]: 0.14 OD
- OD ELISA 450nm - 620nm [8]: 0.063 OD
- OD ELISA 450nm - 620nm [9]: 0.061 OD
- OD ELISA 450nm - 620nm [10]: 0.058 OD
- OD ELISA 450nm - 620nm [11]: 0.055 OD
- OD ELISA 450nm - 620nm [12]: 0.053 OD
B1: Growth and Differentiation Factor 15 (GDF15) (ligand, UniProt Q99988 197-308, looked up)
chain: ARNGDHCPLGPGRCCRLHTVRASLEDLGWADWVLSPREVQVTMCIGACPSQFRAANMHAQIKTSLHRLKPDTVPAPCCVPASYNPMVLIQKTDTGVSLQTYDDLLAKDCHCI
notes: Bought protein (Abcam); also called MIC-1; GDF15 ligand (Abcam)
